Experiments:
human 4-1BB on cells [1] = biological target: T1, human 4-1BB on cells (human, UniProt Q07011 24-255); test: cell-based or functional assay
[2] = biological target: T2, human 4-1BB expressed with a C-terminal myc-myc-hexahistidine tag (h4-1BB.mmH) (human); test: blocking ELISA, 0.25 nM h4-1BB-mmh binding to coated 6His-Flag-h4-1BBL
T2 construct: also called hCD137 (4-1BB) mmH
Description: The 4-1BB blocking assay was performed similarly to the PD-L1 blocking assay. 6His-Flag-h4-1BBL protein ([…] in PBS) was coated onto a 96-well microtiter plate overnight at 4 °C. […] The plates were developed using TMB substrate solution (BD Biosciences) and the absorbance at 450 nm was measured on a SpectraMax I3x plate reader.
Binding data were analyzed using a sigmoidal (four-parameter logistic) dose-response model with GraphPad Prism™ software. […] The percent blocking of tested antibodies at the highest tested concentration of 100 nM was calculated based on the formula shown below: […]

human 4-1BB on cells [3] = biological target: T1, human 4-1BB on cells; test: flow cytometry, Jurkat/NFkB-Luc/h41BB cells
Description: Binding was detected by using a labeled secondary antibody and measuring fluorescence on a flow cytometer.
Assay set up: OVCAR-3+/−PD-L1 cells were lifted with trypsin, washed and resuspended in stain buffer (2% FBS in PBS). OVCAR-3 and Jurkat/NFkB-Luc/h41BB cells were counted and added to wells at 200,000 cells/well. Cells, in wells of 96-well round bottom plates, were pelleted by centrifugation and resuspended in 150 ul stain buffer (PBS containing 2% FBS). Plates were once again centrifuged and subsequently 100 ul of stain buffer alone or stain buffer containing antibody, titrated from 200 nM to 12 pM in a 9-point 1:4 dose titration were added to cells. Cells and antibodies were incubated for 30 min on ice and then washed in stain buffer. Cells were resuspended in 2 μg/ml allophycocyanin (APC) conjugated goat-anti human secondary antibody. A secondary antibody alone control was included. Cells and secondary were incubated for 30 min on ice and then washed in stain buffer. After a subsequent wash with PBS (containing no FBS), cells were resuspended in viability dye (reconstituted in DMSO according to the manufacturer's protocol and diluted 1:1000 in PBS) and incubated for 20 min on ice. They were then washed with stain buffer and resuspended in 2% PFA for 30 min at 4 C. After washing they were filtered and analyzed by flow cytometry. EC₅₀ values of the antibodies were determined from a 4 parameter logistic equation over a 9-point dose response curve (including secondary only control) using GraphPad Prism software.

human 4-1BB on cells [4] = biological target: T1, human 4-1BB on cells; test: cell-based or functional assay; remark: listed apart in the source

T1 sequence (Q07011 24-255): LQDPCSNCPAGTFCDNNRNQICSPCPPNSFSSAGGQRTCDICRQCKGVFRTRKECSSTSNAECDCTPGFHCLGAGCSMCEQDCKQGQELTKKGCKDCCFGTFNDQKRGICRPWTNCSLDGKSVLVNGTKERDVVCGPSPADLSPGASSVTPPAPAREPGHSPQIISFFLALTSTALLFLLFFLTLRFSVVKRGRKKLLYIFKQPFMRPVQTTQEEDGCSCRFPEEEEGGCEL
T2 sequence (chain, as listed by the source limits assumed): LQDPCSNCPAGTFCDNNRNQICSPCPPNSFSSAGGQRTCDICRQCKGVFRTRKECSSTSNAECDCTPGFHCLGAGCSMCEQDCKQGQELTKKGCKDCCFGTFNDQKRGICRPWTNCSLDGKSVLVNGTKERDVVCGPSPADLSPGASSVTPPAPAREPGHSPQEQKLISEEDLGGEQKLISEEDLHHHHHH

B1: mAb25921 (antibody, V domains shown)
VH: QVQLVQSGAEVKKPGASVKVSCKASAYTFTSYGFSWVRQAPGQGLEWMGWISTSNGYTNYAQKIQDRVTMTTDTSTSTAYMELRSLRSDDTAVYYCASLSNWVSFFDYWGQGTLVTVSS
VL: not shown
notes: bivalent parental anti-4-1BB antibody of REGN6191; also called 25921P2; a-4-1BB
NFkB-luciferase MAX (RLU), Jurkat/NFkB-Luc/h41BB + HEK293/hCD20/hPSMA (human 4-1BB on cells [1]): 18000 RLU | NFkB-luciferase MAX (RLU), Jurkat/NFkB-Luc/h41BB + HEK293/hCD20/hPSMA/hPD-L1 (human 4-1BB on cells [1]): 18000 RLU | % Blocking at 100 nM mAb [2]: 94% | IC50 [2]: 0.75 nM | EC50 (human 4-1BB on cells [3]): 0.287 nM | Fold change (max MFI over secondary antibody alone) (human 4-1BB on cells [3]): 76.9 fold | Max [gMFI] (human 4-1BB on cells [3]): 170000 gMFI | IL2 release MAX, human CD3+ T cells + HEK293/hCD20/hPSMA + CD20xCD3 (human 4-1BB on cells [4]): 10 pg/mL | IL2 release MAX, human CD3+ T cells + HEK293/hCD20/hPSMA, no CD20xCD3 (human 4-1BB on cells [4]): 1 pg/mL | IL2 release MAX, human CD3+ T cells + HEK293/hCD20/hPSMA/hPD-L1 + CD20xCD3 (human 4-1BB on cells [4]): 5.8 pg/mL | IL2 release MAX, human CD3+ T cells + HEK293/hCD20/hPSMA/hPD-L1, no CD20xCD3 (human 4-1BB on cells [4]): 1 pg/mL

B2: mAb9373 (antibody, V domains shown)
VH: QVQLVQSGTEVKKPGASVKVSCKASGYTFTAYYMHWVRQAPGQGLDWMGWISPNSGFTNYAQKFQGRVTMTRDTSINTFYMELSGLRSDDTAVYYCAREGSTHHNSFDPWGQGTLVTVSS
VL: not shown
NFkB-luciferase MAX (RLU), Jurkat/NFkB-Luc/h41BB + HEK293/hCD20/hPSMA (human 4-1BB on cells [1]): 18500 RLU | NFkB-luciferase MAX (RLU), Jurkat/NFkB-Luc/h41BB + HEK293/hCD20/hPSMA/hPD-L1 (human 4-1BB on cells [1]): 18500 RLU | IL2 release MAX, human CD3+ T cells + HEK293/hCD20/hPSMA + CD20xCD3 (human 4-1BB on cells [4]): 11.3 pg/mL | IL2 release MAX, human CD3+ T cells + HEK293/hCD20/hPSMA, no CD20xCD3 (human 4-1BB on cells [4]): 2.5 pg/mL | IL2 release MAX, human CD3+ T cells + HEK293/hCD20/hPSMA/hPD-L1 + CD20xCD3 (human 4-1BB on cells [4]): 10.3 pg/mL | IL2 release MAX, human CD3+ T cells + HEK293/hCD20/hPSMA/hPD-L1, no CD20xCD3 (human 4-1BB on cells [4]): 2.5 pg/mL

From patent publication US20250043017A1 (Regeneron, published 2025)
